Publication PMC11501004

Molecular target: GST-LEA12^OR (Oryza rufipogon Griff.)
Assay: MST
Details: scale: fold

B1: MBP-OsSAPK10 (natural protein)
chain: MDRAALTVGPGMDMPIMHDGDRYELVRDIGSGNFGVARLMRSRADGQLVAVKYIERGDKIDENVQREIINHRSLRHPNIIRFKEVILTPTHLAIVMEYASGGELFERICNAGRFSEDEARFFFQQLISGVSYCHSMQVCHRDLKLENTLLDGSTAPRLKICDFGYSKSSVLHSQPKSTVGTPAYIAPEVLLKKEYDGKIADVWSCGVTLYVMLVGAYPFEDPDEPKNFRKTIQRILGVQYSIPDYVHISPECRDLIARIFVANPATRISIPEIRNHPWFLKNLPADLMDDSKMSSQYEEPEQPMQSMDEIMQILAEATIPAAGSGGINQFLNDGLDLDDDMEDLDSDPDLDVESSGEIVYAM
B1 was tested, and the Kd relative to that of LEA12^93-11 was 0.143.
